Molecular target: lysozyme (chicken (egg white), UniProt P00698 19-147)
Experiment: electrochemical impedance spectroscopy (Rct decrease); 0-20 ug/mL lysozyme, 15 min; sensor LOD 90 ng/mL (not a Kd); EIS: proteins in 50 mM phosphate buffer (PBS) pH 7.4, 15 min incubation, rinse with PBS and DI water, then ferro-/ferricyanide read-out; SWV: 10 mM PBS; temperature not stated
Settings: protein: commercial

lysozyme, sequence (P00698 19-147): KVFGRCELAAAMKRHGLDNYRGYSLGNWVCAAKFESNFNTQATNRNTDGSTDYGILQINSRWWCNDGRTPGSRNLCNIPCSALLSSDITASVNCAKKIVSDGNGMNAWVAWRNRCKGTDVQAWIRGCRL

B1: anti-lysozyme aptamer (30-mer) (ssDNA)
DNA: ATCAGGGCTAAAGAGTGCAGAGTTACTTAG
B1: binds.
